Our source for the Km and kcat values is publication PMC10138680, “Identification and Functional Analysis of Tartrate-Resistant Acid Phosphatase Type 5b (TRAP5b) in Oreochromis niloticus” (International Journal of Molecular Sciences, 2023).

The subject of the data set is T1, O=[N+]([O-])c1ccc(OP(=O)(O)O)cc1.
T1 construct: mature peptide of 302 residues (22-residue signal peptide removed; precursor 324 aa), N-terminal MBP tag (pMAL-c5X) kept, E. coli K12 TB1, amylose resin; forward primer F2 encodes MVEQGA
The experiment in a line: purified protein. The class given is biochemical, Oreochromis niloticus. The following applies: substrate 5-25 mM, pH and temperature of the kinetic runs not stated (50 mM acetate; optimum pH 5.0, 50 °C; standard assay 37 °C).

Chain of (r)OnTRAP5b (Oreochromis niloticus) (chain, as listed by the source): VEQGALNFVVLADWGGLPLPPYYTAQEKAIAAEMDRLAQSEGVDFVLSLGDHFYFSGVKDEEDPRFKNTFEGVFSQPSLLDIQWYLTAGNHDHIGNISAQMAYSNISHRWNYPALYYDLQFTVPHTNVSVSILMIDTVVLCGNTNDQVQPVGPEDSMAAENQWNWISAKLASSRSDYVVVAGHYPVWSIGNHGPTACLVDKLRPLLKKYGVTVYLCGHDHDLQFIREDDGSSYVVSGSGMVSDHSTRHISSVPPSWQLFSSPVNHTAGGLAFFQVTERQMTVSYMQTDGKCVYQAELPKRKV

As for (r)OnTRAP5b (Oreochromis niloticus), the Km was found to be 2112 µM and the kcat was found to be 0.27 s⁻¹.

What is called Km is the substrate concentration at which the rate is half of its maximum. One may read the kcat as the maximal rate divided by the concentration of active sites.
